Our source for the thiol-ubiquitination in vitro values is patent publication US20030199036.

The target in this data set is ubiquitin (in vitro thiol-ubiquitination experiment, source not stated).

B1: human pub2 (protein)
chain: MERPYTFKDFLLRPRSHKSRVKGFLRLKMAYMPKNGGQDEENSDQRDDMEHGWEVVDSNDSASQHQEELPPPPLPPGWEEKVDNLGRTYYVNHNNRTTQWHRPSLMDVSSESDNNIRQINQEAAHRRFRSRRHISEDLEPEPSEGGDVPEPWETISEEVNIAGDSLGLALPPPPVSPGSRTSPQELSEELSRRLQITPDSNGEQFSSLIQREPSSRLRSCSVTDAVAEQGHLPPPSVAYVHTTPGLPSGWEERKDAKGRTYYVNHNNRTTTWTRPIMQLAEDGASGSATNSNNHLIEPQIRRPRSLSSPTVTLSAPLEGAKDSPVRRAVKDTLSNPQSPQPSPYNSPKPQHKVTQSFLPPGWEMRIAPNGRPFFIDHNTKTTTWEDPRLKFPVHMRSKTSLNPNDLGPLPPGWEERIHLDGRTFYIDHNSKITQWEDPRLQNPAITGPAVPYSREFKQKYDYFRKKLKKPADIPNRFEMKLHRNNIFEESYRRIMSVKRPDVLKARLWIEFESEKGLDYGGVAREWFFLLSKEMFNPYYGLFEYSATDNYTLQINPNSGLCNEDHLSYFTFIGRVAGLAVFHGKLLDGFFIRPFYKMMLGKQITLNDMESVDSEYYNSLKWILENDPTELDLMFCIDEENFGQTYQVDLKPNGSEIMVTNENKREYIDLVIQWRFVNRVQKQMNAFLEGFTELLPIDLIKIFDENELELLMCGLGDVDVNDWRQHSIYKNGYCPNHPVIQWFWKAVLLMDAEKRIRLLQFVTGTSRVPMNGFAELYGSNGPQLFTIEQWGSPEKLPRAHTCFNRLDLPPYETFEDLREKLLMAVENAQGFEGVD
In the case of B1, the thiol-ubiquitination in vitro entry is “both h-pub1 and h-pub2 can become thiol-ubiquitinated in vitro”.
